The values that follow come from patent US20250270343A1 (Alector, published 2025).

Positions count from the first letter of the chain named.

Usually EC50 stands for the midpoint of the concentration-response curve. By IC50 is commonly meant the concentration at which inhibition is half-maximal. High values mean weaker potency in that assay, low ones greater potency in that assay. Broadly, the EC50 (read off the curve) is the concentration at which the effect is half-maximal. The low end stands for an effect from little substance, the high end for a need for much substance.

The labels stand for the following.
B1: recombinant Fab2 fragment of anti-GPNMB antibody GPN-65 (other)
VH: QLQLQQSGTEVVKPGASVKIPCKASGYAFSSYWMNWVKQRPGKGLEWIGQIYPGDGDTNDNGKFEGKATLTVDKSSNTAYIQLSSLTSEDSAVYFCARSPLHLRGSMDYWGQGTSVTVSS
VL: SIVMTQTPKFLLVSAGDRVTITCKASQSVSNDVAWFQQKPGQSPELLIYSASNRYTGVPDRFTGSGYGTDFTFTISTVQAEDLAVYFCQQNYYSPFTFGGGTRLEIK
notes: also called GPN-65 Fab2
B2: recombinant Fab2 fragment of anti-GPNMB antibody GPN-41 (other)
VH: B1 VH
VL: B1 VL with G64A, T77A
notes: also called GPN-41 Fab2
B3: recombinant Fab2 fragment of anti-GPNMB antibody GPN-35 (other)
VH: EVQLVESGGGSVRPGRSLKLSCAAAGFTFSDYYMTWVRQAPTKGLEWVASINHDGGGTYYRDSVKGRFTISRDNARSSLYLQMDSLRSEDTGTYYCTTRAGWHWGQGVMVTVSS
VL: DIQMTQSPASLSASLGETVSIECLASEDIYNYLTWYQQKPGKSPQVLIYSASGLQDGVPSRFSGSGSGRQYSLKINGLESEDAATYFCLQDSEYPLTFGSGTKLEIK
notes: also called GPN-35 Fab2
B4: soluble mouse GPNMB-Fc polypeptide (Fc of human IgG1 or mouse IgG2A, not specified for the assay) (Fc fusion, UniProt Q99P91 23-502, looked up)
chain: KRFRDVLGHEQYPDHMREHNQLRGWSSDENEWDEHLYPVWRRGDGRWKDSWEGGRVQAVLTSDSPALVGSNITFVVNLVFPRCQKEDANGNIVYEKNCRNDLGLTSDLHVYNWTAGADDGDWEDGTSRSQHLRFPDRRPFPRPHGWKKWSFVYVFHTLGQYFQKLGRCSARVSINTVNLTAGPQVMEVTVFRRYGRAYIPISKVKDVYVITDQIPVFVTMSQKNDRNLSDEIFLRDLPIVFDVLIHDPSHFLNDSAISYKWNFGDNTGLFVSNNHTLNHTYVLNGTFNLNLTVQTAVPGPCPPPSPSTPPPPSTPPSPPPSPLPTLSTPSPSLMPTGYKSMELSDISNENCRINRYGYFRATITIVEGILEVSIMQIADVPMPTPQPANSLMDFTVTCKGATPMEACTIISDPTCQIAQNRVCSPVAVDGLCLLSVRRAFNGSGTYCVNFTLGDDASLALTSTLISIPGKDPDSPLRAVN
notes: extracellular domain; also called moGPNMB-Fc; mGPNMB; not shown: Fc region of human IgG1 or mouse IgG2A; in the Fab2 assay detected with anti-human IgG1 secondary antibody
B5: recombinant Fab2 fragment of anti-GPNMB antibody GPN-38 (other)
VH: QVQLQQPGAELVRPGTSVRLSCKASGYTFTSYWIHWVKQRPGRGLEWIGVIDPSDSYTNYNQQFNVKATLTVDTSSSAAYMQLSSLTSEDSAVYYCARGLITAVNWYFDVWGTGTTVTVSS
VL: DIQMTQSPASLSTSVGEIVTITCRASENIYSYLTWYQQKQGKSPQLLVYNAKTLAEGVPSRFSGSGSGTQFSLKINSLQPEDFGTYYCQHHYGTPLTFGSGTKLEIK
notes: also called GPN-38 Fab2
B6: recombinant Fab2 fragment of anti-GPNMB antibody GPN-37 (other)
VH: EVQLVESGGGLVQPGRSLKLSCAASGFTFSSKSGMAWVRQAPTKGLEWVASISNGGGDTYYRDSVKGRFTISRDNAKNTQYLQMDSLRPEDTATYYCARHRDYGYDAYFDYWGQGVMVTVSS
VL: DIQMTQSPASLSASLGETVTIECLASEDIYSSLAWYQQKPGKSPQLLIYDASSLQDGVPSRFSGSESGTQYSLEINSLQSEDAATYFCQQHHDYPYTFGAGTKLELK
notes: also called GPN-37 Fab2

Experiment [1] deals with T1, soluble human GPNMB-Fc polypeptide (human, UniProt Q14956 23-498, limits assumed).
T1 construct: also called huGPNMB-Fc; not shown: Fc domain
T1 sequence (looked up): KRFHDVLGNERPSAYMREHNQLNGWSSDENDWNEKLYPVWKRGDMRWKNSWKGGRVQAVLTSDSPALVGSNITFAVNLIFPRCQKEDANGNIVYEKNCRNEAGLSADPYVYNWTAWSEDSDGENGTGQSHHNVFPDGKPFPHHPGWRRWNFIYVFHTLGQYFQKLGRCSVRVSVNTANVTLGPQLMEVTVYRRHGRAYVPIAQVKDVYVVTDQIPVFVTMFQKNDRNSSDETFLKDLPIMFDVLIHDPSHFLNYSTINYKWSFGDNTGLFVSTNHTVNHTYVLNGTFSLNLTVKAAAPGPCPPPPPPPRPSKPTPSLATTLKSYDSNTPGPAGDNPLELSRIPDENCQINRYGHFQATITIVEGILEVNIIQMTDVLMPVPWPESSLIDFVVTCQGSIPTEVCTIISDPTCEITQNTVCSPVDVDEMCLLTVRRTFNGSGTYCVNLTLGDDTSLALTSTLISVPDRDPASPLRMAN
Kind of experiment: FACS, Fab2 enhancing huGPNMB-Fc binding to SVEC4-10 cells. How it is done: (§1) Purified recombinant Fab2 fragments of select anti-GPNMB antibodies of the present disclosure were produced through transient transfection and purified. Briefly, 2 ug/mL soluble mouse or human GPNMB-Fc diluted in binding buffer was pre-complexed with increasing concentrations of anti-GPNMB Fab2 fragments in 96-well plates. Subsequently, 100,000 SVEC4-10 cells were added per well and incubated on ice for 30 minutes. Soluble moGPNMB-Fc or huGPNMB-Fc bound to cell surface was detected with fluorescent anti-human IgG1 secondary antibody and measured on FACSCanto. IC50 and EC50 values based on changes in MFI values were calculated for each antibody.

For experiment [2], the target named is B4. Kind of experiment: FACS, Fab2 enhancing moGPNMB-Fc binding to SVEC4-10 cells. How it is done: as §1
Experiment [3] concerns the target B4. The experiment is described as follows: FACS ligand binding assay: 2 ug/mL moGPNMB-Fc pre-complexed with rising Fab2, then SVEC4-10 cells; blocked ligand: unidentified ligand(s) on SVEC4-10 cells; bound GPNMB-Fc detected with anti-human IgG1 secondary. How it is done: as §1
Experiment [4] concerns the target B4. Kind of experiment: FACS, Fab2 blocking moGPNMB-Fc binding to SVEC4-10 cells.
Experiment [5] has as its target T1, soluble human GPNMB-Fc polypeptide. Kind of experiment: FACS, Fab2 blocking huGPNMB-Fc binding to SVEC4-10 cells. How it is done: as §1
Experiment [6] deals with T2, unidentified GPNMB ligand(s) on the surface of NHLF cells.
T2 construct: written like m62, for NHLF cells; also called Normal Human Lung Fibroblast Cells
Kind of experiment: flow cytometry, titration of soluble moGPNMB-Fc on normal human lung fibroblasts; MFI-APC against concentration (ug/mL). The text has this: The extracellular domain of GPNMB protein contains putative protein- or carbohydrate-binding domains capable of recognizing various ligands on the cell surface. […] Soluble mouse GPNMB-Fc polypeptide, consisting of the extracellular domain of mouse GPNMB and an Fc region of human IgG1 or mouse IgG2A (R&D System) (moGPNMB or mGPNMB) was used to confirm the binding activity of GPNMB towards different cell lines. Binding properties of soluble moGPNMB-Fc were examined by flow cytometry. Different cell lines (mouse SVEC4-10 cells, normal human lung fibroblasts (NHLF), mouse astrocytes, and human astrocytes were nonenzymatically harvested, plated at 100,000 cells/well, and incubated with increasing concentrations moGPNMB-Fc or control human IgG1 or control mouse IgG2A, in binding buffer (Hanks' balanced salt solution containing 1.3 mM CaCl₂, 0.8 mM MgSO₄, 3% fetal calf serum, and 10 mM HEPES) for 30 min on ice.
[…] Binding of soluble moGPNMB-Fc to cells was examined by FACSCanto (Becton Dickinson, San Jose, CA). In some experiments, the binding was performed in the presence of known GPNMB binding inhibitors (heparin, dextran sulfate, all purchased from Sigma).

Consider B1, for which the values for the EC50 in experiment [1] and in experiment [2] were 0.83 nM and 0.38 nM, respectively.

As to B2, in experiment [3], the “IC50 (read off the curve)” value was roughly 4000 nM.

As to B3, the IC50 is 4.05 nM in experiment [4] and 5.08 nM in experiment [5].

On to B4, for which the “EC50 (read off the curve)” value in experiment [6] was roughly 0.1 mg/L.

As to B5, the values for the EC50 in experiment [1] and in experiment [2] were 2.15 nM and 5.83 nM, respectively.

B6 displayed an IC50 in experiment [5] of 9.49 nM.
